Assay results: publication PMC32300

Columns and labels:
[1] = target: full length RPTPα-XFP (RPTPα-CFP and RPTPα-YFP); assay: FRET or BRET
[2] = target: full length RPTPα-XFP (RPTPα-CFP and RPTPα-YFP); assay: cross-linking
RPTPα-P137C [3] = assay: cross-linking
RPTPα-P137C [4] = assay: non-reducing SDS-PAGE
[5] = target: RPTPα-516-XFP (RPTPα-516-CFP and RPTPα-516-YFP); assay: FRET or BRET
[6] = target: RPTPα-200-XFP (RPTPα-200-CFP and RPTPα-200-YFP); assay: cross-linking
[7] = target: RPTPα-P137C-XFP (RPTPα-P137C-CFP and RPTPα-P137C-YFP); assay: FRET or BRET

Chain of RPTPα-200-XFP (RPTPα-200-CFP and RPTPα-200-YFP) (P18052 20-829): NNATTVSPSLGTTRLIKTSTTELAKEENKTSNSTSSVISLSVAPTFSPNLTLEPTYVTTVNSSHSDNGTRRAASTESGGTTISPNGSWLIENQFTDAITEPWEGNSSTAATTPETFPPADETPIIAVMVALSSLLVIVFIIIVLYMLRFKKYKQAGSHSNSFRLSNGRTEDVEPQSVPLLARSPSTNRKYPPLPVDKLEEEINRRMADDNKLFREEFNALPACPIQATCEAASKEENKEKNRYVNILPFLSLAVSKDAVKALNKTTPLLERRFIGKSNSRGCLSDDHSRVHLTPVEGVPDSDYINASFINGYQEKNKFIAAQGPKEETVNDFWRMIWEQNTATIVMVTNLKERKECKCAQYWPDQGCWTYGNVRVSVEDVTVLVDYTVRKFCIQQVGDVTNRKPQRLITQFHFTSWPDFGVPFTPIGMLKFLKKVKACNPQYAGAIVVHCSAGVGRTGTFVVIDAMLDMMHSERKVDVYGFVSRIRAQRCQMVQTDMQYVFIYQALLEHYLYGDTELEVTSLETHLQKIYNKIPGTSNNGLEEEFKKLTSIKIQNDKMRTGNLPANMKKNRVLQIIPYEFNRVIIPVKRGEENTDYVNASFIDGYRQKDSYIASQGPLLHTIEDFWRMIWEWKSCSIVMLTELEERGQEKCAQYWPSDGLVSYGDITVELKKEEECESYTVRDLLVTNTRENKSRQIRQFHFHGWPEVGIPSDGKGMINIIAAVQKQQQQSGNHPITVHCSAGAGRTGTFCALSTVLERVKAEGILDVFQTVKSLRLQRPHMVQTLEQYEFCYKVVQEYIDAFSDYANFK
Chain of RPTPα-516-XFP (RPTPα-516-CFP and RPTPα-516-YFP) (P18052 20-829): as above

full length RPTPα-XFP (RPTPα-CFP and RPTPα-YFP) (receptor)
CFP fluorescence lifetime (τφ) [1]: 2.2 ns | stoichiometry N [2]: 2

RPTPα-P137C (receptor)
percent cross-linked by BS3 (RPTPα-P137C [3]): < 10% | percent in the dimeric form (RPTPα-P137C [4]): > 80%

RPTPα-516-XFP (RPTPα-516-CFP and RPTPα-516-YFP) (domain or fragment)
F(440)/F(490) ratio [5]: 0.46

RPTPα-200-XFP (RPTPα-200-CFP and RPTPα-200-YFP) (domain or fragment)
stoichiometry N [6]: 2

RPTPα-P137C-XFP (RPTPα-P137C-CFP and RPTPα-P137C-YFP) (receptor)
F(440)/F(490) ratio [7]: 0.5
